The record followed here is patent US20100272736A1 (KALOBIOS PHARMACEUTICALS, published 2010).

B1: Fab SEQ ID NOs. 35. 36 (Fab, V domains shown)
VH: EVQLVESGGGVVQPGRSLRLSCAASGFTFSNYPMHWVRQAPGKGLEWVAVISYDGSEKWYADSVKGRFTISRDNSKNTLYLEMNSLRPEDTAVYYCARNRGDIYYDFTYAMDYWGQGTTVTVSS
VL: DIQLTQSPSTLSASVGDSVTITCRASEGVDRWLAWYQQKPGRAPKLLIYDASTLQSGVPSRFSGSGSGTEFSLTISSLQPDDVATYYCQHFWSTPYTFGQGTKLEIK
B2: Fab SEQ ID NOs: 5, 6 (Fab, V domains shown)
VH: QVQLVESGGGVVQPGRSLRLSCTASGFSFSSYGMHWVRQAPGKGLEWVAVIWYNGKEISYADSVKGRFTVSRDNPKNTLYLQMSSLRTEDTAVYYCARNRGDIYYDFTYAMDIWGQGTMVTVSS
VL: AIQLTQSPSFLSASVGDRVTITCRASQGISTYLAWYQQKPGKAPKLLIYAASSLQSGVPSRFSGSGSGTDFTLTISSLQPEDVATYYCQQFWSTPYTFGQGTKLEIK
B3: Fab SEQ ID NOs: 13, 4 (Fab, V domains shown)
VH: QVQLVESGGGVVQPGRSLRLSCAASGFTFSSYPLHWVRQAPGKGLEWVSFISYDGSEKYYASSVKGRFTISRDNSENTLYLQMNSLRPEDTAVYYCARNRGDIYYDFTYAMDIWGQGTMVTVSS
VL: DIQMTQSPSSLSASVGDRVTITCRASQSISRWVAWYQQRPGKAPNLLIYDASSLKSGVPSRFSGSGSGTEFTLTISSLQPEDIATYYCQQFWSTPYTFGQGTKLEIK
B4: Fab SEQ ID NOs: 13, 10 (Fab, V domains shown)
VH: QVQLVESGGGVVQPGRSLRLSCAASGFTFSSYPLHWVRQAPGKGLEWVSFISYDGSEKYYASSVKGRFTISRDNSENTLYLQMNSLRPEDTAVYYCARNRGDIYYDFTYAMDIWGQGTMVTVSS
VL: DIQLTQSPSFLSASVGDRVTITCRASQGISTYLAWYQQKPGKAPKLLIYDASALQSGVPSRFSGSGSGTEFTLTISSLQPEDVATYYCQQFWSTPYTFGQGTKLEIK
B5: Fab SEQ ID NOs 3, 4 (Fab, V domains shown)
VH: QVQLVESGGGVVQPGGSLRLSCAASGFTFSTAGMHWVRQAPGKGLEWVAVIWYNGKEISYADSVKGRFTVSRDNPKNTLYLQMSSLRTEDTAVYYCARNRGDIYYDFTYAMDIWGQGTMVTVSS
VL: DIQMTQSPSSLSASVGDRVTITCRASQSISRWVAWYQQRPGKAPNLLIYDASSLKSGVPSRFSGSGSGTEFTLTISSLQPEDIATYYCQQFWSTPYTFGQGTKLEIK
B6: Fab SEQ ID NOs. 24, 26 (Fab, V domains shown)
VH: EVQLVESGGGVVQPGRSLRLSCAASGFTFSNYPMHWVRQAPGKGLEWVAVISYDGSEKWYADSVKGRFTISRDNSKNTLYLEMNSLRPEDTAVYYCARNRGDIYYDFTYAMDIWGQGTTVTVSS
VL: DIQLTQSPSTLSASVGDSVTITCRASEGVDRWLAWYQQKPGRAPKLLIYDASTLQSGVPSRFSGSGSGTEFSLTISSLQPDDVATYYCQHFWGTPYTFGQGTKLEIK
B7: Fab SEQ ID NOs: 13, 37 (Fab, V domains shown)
VH: QVQLVESGGGVVQPGRSLRLSCAASGFTFSSYPLHWVRQAPGKGLEWVSFISYDGSEKYYASSVKGRFTISRDNSENTLYLQMNSLRPEDTAVYYCARNRGDIYYDFTYAMDIWGQGTMVTVSS
VL: DIQMTQSPSSLSASVGDRVTITCRASQSISRWVAWYQQRPGKAPNLLIYDASSLKSGVPSRFSGSGSGTEFTLTISSLQPEDIATYYCQQFWGTPYTFGQGTKLEIK

This test deals with PcrV on Pseudomonas aeruginosa strain PA103 (type III secretion system) (Pseudomonas aeruginosa strain PA103). Nature of the test: cell-based or functional assay.
Consider B1, for which the “IC50 (nM), TTSS-dependent cytotoxicity assay (PA103 killing of P3-X63-Ag8 myeloma cells, propidium iodide flow cytometry)” value (shortened to “IC50 (nM)”) is 61.4 nM.

As to B2, the “IC50 (nM)” value was found to be 50.2 nM.

Consider B3, for which the “IC50 (nM)” value worked out at 20 nM.

B4: the “IC50 (nM)” value worked out at 25.5 nM.

For B5, the “IC50 (nM)” value worked out at 35.1 nM.

Take B6: the “IC50 (nM)” value stood at 25.5 nM.

For B7, the “IC50 (nM)” value was found to be 12 nM.
